The source of these data is US20230348614A1 (VISTERRA, published 2023).

Positions count from the first letter of the chain named.

Assay [1] concerns the target T1, CD138 on the surface of U266 cells (CD138+ human lymphoblastic myeloma cell line) (human, UniProt P18827 23-310).
T1 construct: whole, on cells; also called cell surface CD138; membrane CD138
T1 sequence (looked up): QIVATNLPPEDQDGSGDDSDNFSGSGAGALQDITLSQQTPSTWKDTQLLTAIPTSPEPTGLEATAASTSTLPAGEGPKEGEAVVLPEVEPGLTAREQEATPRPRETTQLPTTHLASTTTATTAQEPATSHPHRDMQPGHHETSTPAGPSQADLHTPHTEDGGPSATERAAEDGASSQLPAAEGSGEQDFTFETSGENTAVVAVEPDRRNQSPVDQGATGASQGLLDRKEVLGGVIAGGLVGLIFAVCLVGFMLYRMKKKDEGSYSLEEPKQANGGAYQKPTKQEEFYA
Nature of the assay: flow cytometry on U266 cells at pH 6.0, MFI against antibody concentration (0.01-10 ug/mL). As for the experimental part:
(§1) Antibody binding to membrane CD138 was evaluated using the CD138+ human lymphoblastic myeloma cell line (U266) and quantified by flow cytometry. Cells were grown in RPMI1640 with 10% FBS. […] Cells were washed (1X) with same pH-matched buffer (and as throughout the experiment) followed by incubation with secondary (detection) goat anti-human Fab( Jackson Immuno Research) conjugated with Alexa Fluor-488 for 30 minutes also at either pH 6.0 or 7.4. Cells were washed once more and resuspended in matching pH buffer and evaluated by flow cytometry. Antibody cell binding was reported as geometric mean fluorescence intensity (MFI). Dose-response curves were generated using GraphPad Prism. Binding data were plotted using nonlinear regression analysis and a 4-parameter curve fit.

Assay [2] addresses T2, Biotinylated recombinant soluble human CD138 extracellular domain (Sino Biological, Cat. 11429-H08H) (human, UniProt P18827 18-251, biotin (EZ-Link NHS-SS-PEG4 Biotin) on primary amino groups of lysines, protein:biotin 1:20).
T2 construct: range 18-251; Bought reagent; The limits are printed as approximate; also called biotinylated CD138; recombinant CD138
T2 sequence (looked up): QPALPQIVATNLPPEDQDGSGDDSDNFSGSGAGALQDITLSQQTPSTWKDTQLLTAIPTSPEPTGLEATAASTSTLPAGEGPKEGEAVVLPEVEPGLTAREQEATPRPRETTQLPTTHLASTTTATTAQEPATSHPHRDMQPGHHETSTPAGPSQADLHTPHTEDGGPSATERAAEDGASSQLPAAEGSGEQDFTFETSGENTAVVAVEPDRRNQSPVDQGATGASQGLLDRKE
As to the kind of experiment: BLI (Octet): biotinylated CD138 (10 nM) on streptavidin tips, antibody 12.5 and 25 nM, pH 6.0, 1:1 fit. Here is the method:
(§2) Binding experiments were carried using assay buffer comprised of 100 mM Sodium Phosphate+ 150 mM NaCl + 0.02% Tween-20 and adjusted to target pH of 7.4, 6.0, 6.4, or 6 using appropriate ratios of monobasic and dibasic sodium phosphate buffer. 25 nM biotinylated CD138 was loaded onto Streptavidin capture Octet (SA) tips for 120 seconds (antigen loading step) followed by antibody binding for associated for 300 seconds (association step), and subsequently dissociation for 300 seconds (dissociation step). All steps were carried out at the respective target pH using the corresponding pH adjusted buffers.
(§3) Modifications to this protocol included lowering the loading concentration of biotinylated CD138 from 25 nM to 10 nM and varying the test antibody concentrations ranging from 25 nM down to 0.8 nM (as 2-fold dilutions). The rationale for doing so was to potentially reduce any target avidity effects while also looking at the analyte concentration dependency.
(§4) Data were analyzed for purposes of calculating approximate kinetic binding parameters and apparent binding affinities based on these rates. Data was fit assuming a 1:1 binding model.

Assay [3] has as its target T1, CD138 on the surface of U266 cells …. Nature of the assay: flow cytometry on U266 cells at pH 6, MFI against antibody concentration (about 0.03-30 ug/mL). As for the experimental part: as §1
(§5) Binding was evaluated as described.
A general note: In flow cytometry, cells or beads pass a laser one at a time.

For assay [4] the target is unchanged. Nature of the assay: flow cytometry on U266 cells at pH 6.0, MFI against antibody concentration (0.04-10 ug/mL shown). As for the experimental part:
as §1

For assay [5], the target named is T3, Recombinant soluble human CD138 extracellular domain (analyte in SPR) (human, UniProt P18827 23-254).
T3 construct: extracellular domain; also called recombinant CD138 (the antigen)
T3 sequence (looked up): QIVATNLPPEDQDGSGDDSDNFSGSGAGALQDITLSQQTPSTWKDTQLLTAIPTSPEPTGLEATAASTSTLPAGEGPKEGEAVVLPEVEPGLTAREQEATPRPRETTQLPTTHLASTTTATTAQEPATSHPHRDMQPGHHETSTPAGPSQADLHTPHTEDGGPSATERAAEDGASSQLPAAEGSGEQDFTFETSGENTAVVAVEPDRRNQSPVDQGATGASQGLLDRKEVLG
Nature of the assay: SPR (Carterra LSA): antibody captured by anti-human IgG, CD138 as analyte, pH 6.0, 1:1 fit; pH 6.0, SPR. The text has this:
(§6) This method as described, immobilizes the target (recombinant CD138) through biotinylation-streptavidin capture. Such a method may, in principle, lead to biases in binding due to either chemical modification of the capture ligand and/or avidity effects due to immobilization of this ligand on the biosensor. Moreover, this method depends on diffusion-based principles of dissociation leading to non-equilibrium binding states. Surface plasmon resonance is an orthogonal, commonly used method for determining binding kinetics and deriving affinity values based on these parameters. In this method, antibodies were directly coupled to the sensor chip and probed with several concentrations of recombinant CD138 (the antigen) varying from 100 nM to 41 nM. This evaluation was completed under two different pH conditions, i.e., pH 6.0 and pH […].
(§7) Antibody-CD138 binding was evaluated on a Carterra LSA high throughput SPR instrument. Binding experiments were carried out using binding buffer comprising 100 mM sodium phosphate, 150 mM NaCl and 0.05% Tween-20 buffer. Buffers were adjusted to target pH of 7.4 and 6.0, by use of sodium hydroxide or HCL, respectively. All steps were also carried out independently at these respective buffer pHs. Antibodies were captured on the SPR (CMDP) chip using an anti-human IgG covalently coupled to the CMDP chip based on standard protocols, as described by the instrument manufacturer, and to create a uniform lawn on the chip surface at a target 25 nM anti-CD138 antibody concentration. Binding to CD138 was achieved by uniformly passing binding analyte with increasing concentrations of CD138 (41 nM-100 nM) for 15 minutes and allowing dissociation for 20 minutes. Analyte was flowed over the chip at a rate of 2 milliliters/minute. Raw binding data were processed using kinetics data analysis software also provided by the manufacturer (Carterra) following as 2X background subtraction that used the first six injections of buffer blanks and the internal machine reference controls. Kinetic data was analysed using a global fit and assuming a 1:1 binding interaction. Further analysis of individual binding curves (sensorgrams) with best fits were used to refine the calculation of kinetic parameters.

The target in assay [6] is T1, CD138 on the surface of U266 cells …. Nature of the assay: flow cytometry on U266 cells at pH 6.5, MFI against antibody concentration (about 0.03-30 ug/mL).
Assay [7] addresses T2, Biotinylated recombinant soluble human …. Nature of the assay: BLI (Octet): biotinylated CD138 (10 nM) on streptavidin tips, antibody 12.5 and 25 nM, pH 6.0, 1:1 fit; pH 6.0. Here is the method:
as §2, §3, §4

Assay [8] addresses T3, Recombinant soluble human CD138 …. Nature of the assay: SPR (Carterra LSA): antibody captured by anti-human IgG, CD138 as analyte, pH 6.0, 1:1 fit.
Source text: as §6
Antibody-CD138 binding was evaluated on a Carterra LSA high throughput SPR instrument. Binding experiments were carried out using binding buffer comprising 100 mM sodium phosphate, 150 mM NaCl and 0.05% Tween-20 buffer. Buffers were adjusted to target pH of 7.4 and 6.0, by use of sodium hydroxide or HCL, respectively. All steps were also carried out independently at these respective buffer pHs. […] Kinetic data was analysed using a global fit and assuming a 1:1 binding interaction. […]

The target is the same in assay [9]. As to the kind of experiment: SPR (Carterra LSA): antibody captured by anti-human IgG, CD138 as analyte, pH 7.4, 1:1 fit.
Source text: as §6, §7

In assay [10] the target is T1, CD138 on the surface of U266 cells …. Nature of the assay: flow cytometry on U266 cells at pH 7, MFI against antibody concentration (about 0.03-30 ug/mL). As for the experimental part: as §1, §5
Assay [11] shares this target. As to the kind of experiment: flow cytometry on U266 cells at pH 7.4, MFI against antibody concentration (about 0.03-30 ug/mL). As for the experimental part: as §1, §5

Broadly, the EC50 (read off the curve) is the concentration needed to bring the measured effect to its halfway point. The low end stands for higher potency in that assay, the high end for lower potency in that assay. Usually Kd stands for a measure of binding affinity in units of concentration. A word on the koff: it is the rate constant with which the complex falls apart. A word on the kon: it is a measure of how fast the partners come together.

B1: Ab175 (antibody, V domains shown)
VH: EVQLVQSGAEVKKPGASVKVSCKASGYSFSSYYMHWVRQAPGQGLEWMGTIHPSDSTTNYNQKFQGRVTMTVDTSTRTAYMELSSLRSEDTAVYYCADFLYWGQGTTVTVSS
VL: DIVMTQTPLSLSVTPGQPASISCKSSKSLLYKDGHTYLNWFLQKPGQSPQLLIYVVSTRASGVPDRFSGSGSGTDFTLKISRVEAEDVGVYYCQQLVEYPYTFGQGTKLEIK
notes: also called mAb Ab175
On to B1, for which the 50% effective concentration (EC50 (read off the curve)) in assay [1] is around 0.2 mg/L.

B2: Antibody Ab30 (antibody, V domains shown)
VH: B1 VH with S54E, L100V
VL: B1 VL with H35K
As for B2, in [2], the Kd was 4.6 nM, the koff was found to be 0.0034 s⁻¹ and the kon is 720000 M⁻¹ s⁻¹.

B3: Antibody 29-0 (antibody, V domains shown)
VH: B1 VH with H52Y, S54G, D55A, L100V
VL: B1 VL with H35K
notes: also called mAb 29-0
With B3, the “EC50 (read off the curve)” value in assay [3] is around 0.6 mg/L. The “EC50 (read off the curve)” value in assay [4] is around 0.6 mg/L. Moreover, in assay [5], the equilibrium dissociation constant (Kd) amounted to 28 nM, the off-rate constant (koff) was 0.0042 s⁻¹ and the kon is 150000 M⁻¹ s⁻¹. In assay [6], the “EC50 (read off the curve)” value is around 0.9 mg/L.

B4: Antibody Ab137 (antibody, V domains shown)
VH: B1 VH with E1Q, D98N, L100V
VL: B1 VL with H35K, Y54D
As for B4, the concentration giving a half-maximal response (EC50 (read off the curve)) in [3] was around 0.4 mg/L; in [6], around 0.7 mg/L. The Kd in assay [5] was determined as 16 nM; in assay [7] it was 2.9 nM. Further, the off-rate (koff) is 0.0029 s⁻¹ in [5] and 0.003 s⁻¹ in [7]. The kon in assay [5] stood at 180000 M⁻¹ s⁻¹; in [7], 1e+06 M⁻¹ s⁻¹.

B5: Antibody Ab71 (antibody, V domains shown)
VH: B1 VH with E1Q, T50D, D98N, L100V
VL: B1 VL with H35K
For the molecule B5, in assay [8], the koff was found to be 0.0018 s⁻¹ and the kon amounted to 300000 M⁻¹ s⁻¹. For the same molecule, in assay [9], the Kd came out at 21 nM, the dissociation rate constant (koff) worked out at 0.00028 s⁻¹ and the kon was found to be 10000 M⁻¹ s⁻¹. Besides, in assay [2], the Kd is 0.98 nM, the koff came out at 0.0011 s⁻¹ and the kon was determined as 1.2e+06 M⁻¹ s⁻¹.

B6: Antibody Ab32 (antibody, V domains shown)
VH: B1 VH
VL: B1 VL with H35K
For B6, the “EC50 (read off the curve)” value in assay [1] is around 1 mg/L. In addition, in assay [2], the Kd was 6.4 nM, the dissociation rate constant (koff) stood at 0.0036 s⁻¹ and the association rate constant (kon) amounted to 560000 M⁻¹ s⁻¹.

B7: Antibody Ab17 (antibody, V domains shown)
VH: B1 VH with L100V
VL: B1 VL
notes: also called mAb 17; Mab 17
On to B7, for which, in [1], the concentration for a half-maximal effect (EC50 (read off the curve)) was around 0.5 mg/L. Further, in [5], the equilibrium dissociation constant (Kd) turned out to be 16 nM, the dissociation rate constant (koff) is 0.0026 s⁻¹ and the on-rate (kon) stood at 170000 M⁻¹ s⁻¹. Further, in [7], the Kd was 6.2 nM, the off-rate (koff) was 0.0051 s⁻¹ and the association rate constant (kon) was 860000 M⁻¹ s⁻¹.

B8: Antibody Ab43 (antibody, V domains shown)
VH: B1 VH with L100V
VL: B1 VL with H35K, N39L
As to B8, the “EC50 (read off the curve)” value was around 0.5 mg/L in assay [1]; around 0.6 mg/L in assay [3]; around 0.9 mg/L in assay [10]; around 0.7 mg/L in assay [6]; around 1 mg/L in [11]. Moreover, the dissociation constant (Kd) in assay [2] is 6.5 nM. The koff in assay [2] was determined as 0.0041 s⁻¹. The kon in assay [2] amounted to 630000 M⁻¹ s⁻¹.

B9: Antibody Ab28 (antibody, V domains shown)
VH: B1 VH with H52Y, S54G, L100V
VL: B1 VL with H35K
notes: also called Mab 28
On to B9, for which the “EC50 (read off the curve)” value in [1] was around 0.7 mg/L; in assay [3], around 0.5 mg/L; in assay [6] it was around 0.8 mg/L. Also, the Kd stood at 12 nM in [5] and 4 nM in [7]. The off-rate (koff) in assay [5] worked out at 0.0026 s⁻¹; in assay [7] it was 0.0045 s⁻¹. Besides, the kon in [5] came out at 220000 M⁻¹ s⁻¹; in assay [7], 1.2e+06 M⁻¹ s⁻¹.
